Bridge positions count the residues as written; N and C are the ends. Square brackets hold non-standard residues; d marks the D form. Ends that are not written are not given here. * marks the point of attachment. Acetyl(2-(4-imidazolyl)) = O=C(Cc1c[nH]cn1)*; Aib = CC(C)(N)C(=O)O A value given as a limit tells only on which side of the number the result lay.

Sequences and labels used below:
T1: human GIP receptor (human, UniProt P48546 22-466)
T1 sequence (looked up): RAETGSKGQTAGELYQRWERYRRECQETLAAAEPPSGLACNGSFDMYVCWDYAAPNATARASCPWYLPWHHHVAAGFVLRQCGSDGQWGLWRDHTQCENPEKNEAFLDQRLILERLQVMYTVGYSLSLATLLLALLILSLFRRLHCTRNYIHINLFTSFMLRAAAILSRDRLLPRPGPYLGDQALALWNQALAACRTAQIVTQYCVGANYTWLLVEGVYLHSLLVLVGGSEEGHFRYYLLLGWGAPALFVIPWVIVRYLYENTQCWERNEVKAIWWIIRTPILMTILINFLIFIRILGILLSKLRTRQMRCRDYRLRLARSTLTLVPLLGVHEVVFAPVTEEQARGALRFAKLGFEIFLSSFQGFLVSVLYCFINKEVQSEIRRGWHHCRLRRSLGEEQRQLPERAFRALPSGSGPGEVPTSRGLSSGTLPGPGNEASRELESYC

The target in the first assay is human GCG receptor (human, UniProt P47871 26-477). Nature of the assay: cell-based or functional assay.
human GCG receptor, sequence (P47871 26-477): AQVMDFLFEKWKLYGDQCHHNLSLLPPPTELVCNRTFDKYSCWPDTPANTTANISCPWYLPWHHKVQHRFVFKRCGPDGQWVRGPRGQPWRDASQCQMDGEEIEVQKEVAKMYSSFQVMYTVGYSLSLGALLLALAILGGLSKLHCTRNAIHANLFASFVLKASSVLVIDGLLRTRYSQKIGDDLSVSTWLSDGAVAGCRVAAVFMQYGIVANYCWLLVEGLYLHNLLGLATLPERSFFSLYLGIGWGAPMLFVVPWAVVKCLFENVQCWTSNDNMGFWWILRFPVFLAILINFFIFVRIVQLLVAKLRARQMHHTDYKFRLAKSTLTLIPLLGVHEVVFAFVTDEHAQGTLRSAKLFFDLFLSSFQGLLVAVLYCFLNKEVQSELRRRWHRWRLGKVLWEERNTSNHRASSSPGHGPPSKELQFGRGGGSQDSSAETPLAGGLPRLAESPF
As to H[Aib]EGTFTSDYSIAMDEIHQKDFVDWLLAEKC (bridge 16-20) [triple agonist of SEQ ID NO: 80], the “In vitro activity compared to native-type peptide (%), vs Glucagon” value (shortened to “In vitro activity … (%), vs Glucagon”) was 0%.
Still for that read-out and setting: the figure for Y[Aib]QGTFTSDYSKYLDEKAAKEFVQWLLDHHPSSGQPPPSC (bridge 16-20) [triple agonist of SEQ ID NO: 75] is 8.5%; for H[Aib]QGTFTSDYSKYLDEKRQKEFVQWLLDTKC (bridge 16-20) [triple agonist of SEQ ID NO: 78] it is 14%.
On the same count and under the same terms, the same measure for {Acetyl(2-(4-imidazolyl))}-[Aib]QGTFTSDYSKYLDEKRQKEFVQWLLNTC (bridge 15-19) [triple agonist of SEQ ID NO: 81]: 0.3%.
The same measure, in the same setting: the figure for {Acetyl(2-(4-imidazolyl))}-[Aib]QGTFTSDYSIAMDEIHQKDFVNWLLNTC (bridge 15-19) [triple agonist of SEQ ID NO: 87] is under 0.1%.
Turning to {Acetyl(2-(4-imidazolyl))}-[Aib]QGTFTSDYSIAMDEIHQKDFVNWLLAQC (bridge 15-19) [triple agonist of SEQ ID NO: 85], the “In vitro activity … (%), vs Glucagon” value was under 0.1%.
Same read-out and setting: the same measure for {Acetyl(2-(4-imidazolyl))}-[Aib]EGTFTSDYSIAMDEIHQKDFVDWLLAEC (bridge 15-19) [triple agonist of SEQ ID NO: 84]: under 0.1%.
Same read-out and setting: the same measure for {Acetyl(2-(4-imidazolyl))}-[Aib]QGTFTSDYSKYLDEKRQKEFVQWLLDTKC (bridge 15-19) [triple agonist of SEQ ID NO: 89]: 0.7%; for H[Aib]QGTFTSDVSKYLDGQAAQEFVAWLLAGC [triple agonist of SEQ ID NO: 9]: 0.13%.
Same read-out and setting: the same measure for Y[Aib]QGTFTSDYSKCLDERAAKEFVQWLLDHHPSSGQPPPS (bridge 16-20) [triple agonist of SEQ ID NO: 69]: 9.6%; for Y[Aib]QGTFTSDYSKYLDEKAAKDFVQWLLDHHPSSGQPPPSC (bridge 16-20) [triple agonist of SEQ ID NO: 77]: 12.2%.
On to H[Aib]QGTFTSDVSKYLDGQAAQEFVAWLLKGC [triple agonist of SEQ ID NO: 8], for which the “In vitro activity … (%), vs Glucagon” value was found to be 0.1%.

A further assay deals with T1, human GIP receptor. Nature of the assay: cell-based or functional assay.
For H[Aib]EGTFTSDYSIAMDEIHQKDFVDWLLAEKC (bridge 16-20) [triple agonist of SEQ ID NO: 80], the “In vitro activity compared to native-type peptide (%), vs GIP” value was 0.1%.
The same measure, in the same setting: the same measure for Y[Aib]QGTFTSDYSKYLDEKAAKEFVQWLLDHHPSSGQPPPSC (bridge 16-20) [triple agonist of SEQ ID NO: 75]: 18%; for H[Aib]QGTFTSDYSKYLDEKRQKEFVQWLLDTKC (bridge 16-20) [triple agonist of SEQ ID NO: 78]: 0.12%.
Same read-out and setting: the figure for {Acetyl(2-(4-imidazolyl))}-[Aib]QGTFTSDYSKYLDEKRQKEFVQWLLNTC (bridge 15-19) [triple agonist of SEQ ID NO: 81] is under 0.1%; for {Acetyl(2-(4-imidazolyl))}-[Aib]QGTFTSDYSIAMDEIHQKDFVNWLLNTC (bridge 15-19) [triple agonist of SEQ ID NO: 87] it is under 0.1%; for {Acetyl(2-(4-imidazolyl))}-[Aib]QGTFTSDYSIAMDEIHQKDFVNWLLAQC (bridge 15-19) [triple agonist of SEQ ID NO: 85] it is 0.3%.
The same measure, in the same setting: the figure for {Acetyl(2-(4-imidazolyl))}-[Aib]EGTFTSDYSIAMDEIHQKDFVDWLLAEC (bridge 15-19) [triple agonist of SEQ ID NO: 84] is under 0.1%; for {Acetyl(2-(4-imidazolyl))}-[Aib]QGTFTSDYSKYLDEKRQKEFVQWLLDTKC (bridge 15-19) [triple agonist of SEQ ID NO: 89] it is under 0.1%; for H[Aib]QGTFTSDVSKYLDGQAAQEFVAWLLAGC [triple agonist of SEQ ID NO: 9] it is under 0.1%.
For Y[Aib]QGTFTSDYSKCLDERAAKEFVQWLLDHHPSSGQPPPS (bridge 16-20) [triple agonist of SEQ ID NO: 69], the “In vitro activity compared to native-type peptide (%), vs GIP” value was determined as 62.8%.
On the same count and under the same terms, the figure for Y[Aib]QGTFTSDYSKYLDEKAAKDFVQWLLDHHPSSGQPPPSC (bridge 16-20) [triple agonist of SEQ ID NO: 77] is 35.5%; for H[Aib]QGTFTSDVSKYLDGQAAQEFVAWLLKGC [triple agonist of SEQ ID NO: 8] it is under 0.1%.

For a further assay, the target named is human GLP-1 receptor (human, UniProt P43220 24-463). Nature of the assay: cell-based or functional assay.
As for H[Aib]EGTFTSDYSIAMDEIHQKDFVDWLLAEKC (bridge 16-20) [triple agonist of SEQ ID NO: 80], the “In vitro activity compared to native-type peptide (%), vs GLP-1” value (from here on “In vitro activity … (%), vs GLP-1”) was found to be 8.1%.
Still for that read-out and setting: the same measure for Y[Aib]QGTFTSDYSKYLDEKAAKEFVQWLLDHHPSSGQPPPSC (bridge 16-20) [triple agonist of SEQ ID NO: 75]: 35.1%; for H[Aib]QGTFTSDYSKYLDEKRQKEFVQWLLDTKC (bridge 16-20) [triple agonist of SEQ ID NO: 78]: 51%; for {Acetyl(2-(4-imidazolyl))}-[Aib]QGTFTSDYSKYLDEKRQKEFVQWLLNTC (bridge 15-19) [triple agonist of SEQ ID NO: 81]: 7.8%.
As for {Acetyl(2-(4-imidazolyl))}-[Aib]QGTFTSDYSIAMDEIHQKDFVNWLLNTC (bridge 15-19) [triple agonist of SEQ ID NO: 87], the “In vitro activity … (%), vs GLP-1” value worked out at 0.9%.
Same read-out and setting: the same measure for {Acetyl(2-(4-imidazolyl))}-[Aib]QGTFTSDYSIAMDEIHQKDFVNWLLAQC (bridge 15-19) [triple agonist of SEQ ID NO: 85]: 4.3%; for {Acetyl(2-(4-imidazolyl))}-[Aib]EGTFTSDYSIAMDEIHQKDFVDWLLAEC (bridge 15-19) [triple agonist of SEQ ID NO: 84]: 4.2%; for {Acetyl(2-(4-imidazolyl))}-[Aib]QGTFTSDYSKYLDEKRQKEFVQWLLDTKC (bridge 15-19) [triple agonist of SEQ ID NO: 89]: 7.1%.
The same measure, in the same setting: the figure for H[Aib]QGTFTSDVSKYLDGQAAQEFVAWLLAGC [triple agonist of SEQ ID NO: 9] is 32.1%.
Turning to Y[Aib]QGTFTSDYSKCLDERAAKEFVQWLLDHHPSSGQPPPS (bridge 16-20) [triple agonist of SEQ ID NO: 69], the “In vitro activity … (%), vs GLP-1” value came out at 24.3%.
Y[Aib]QGTFTSDYSKYLDEKAAKDFVQWLLDHHPSSGQPPPSC (bridge 16-20) [triple agonist of SEQ ID NO: 77]: the “In vitro activity … (%), vs GLP-1” value was determined as 38.7%.
On the same count and under the same terms, the figure for H[Aib]QGTFTSDVSKYLDGQAAQEFVAWLLKGC [triple agonist of SEQ ID NO: 8] is 14.2%.

For the origin of these results see patent US20230381333A1 (HANMI PHARM, published 2023).
